In article PMC2832577 (Science (New York, N.Y.), 2008):
Blank lines part the entries; values can stand above or below the compound they belong to.

Experiments:
LeuT [1] = target: T1, LeuT (Aquifex aeolicus, UniProt O67854); assay: displacement of [3H]leucine binding
LeuT [2] = target: T1, LeuT; assay: direct radioligand binding
LeuT [3] = target: T1, LeuT; assay: X-ray crystal structure, anomalous difference Fourier; type: binding; conditions: primary substrate site
CC(C)C[C@H](N)C(=O)O = assay: purified protein; conditions: transport
NCC(=O)O = assay: purified protein; conditions: transport
CSCC[C@H](N)C(=O)O = assay: purified protein; conditions: transport
[4] = tested on: N[C@@H](Cc1ccc(O)cc1)C(=O)O; assay: purified protein; conditions: transport

Compound: C[Se]CC[C@H](N)C(=O)O [selenomethionine]
- X-ray crystal structure, anomalous difference Fourier (LeuT [3]): We also measured diffraction data on a LeuT-selenomethionine complex

Compound: LeuT (Aquifex aeolicus VF5)
- Km (CC(C)C[C@H](N)C(=O)O): 0.146 ± 0.025 µM
- Vmax (CC(C)C[C@H](N)C(=O)O): 0.000343 µmol/min/mg
- kcat (CC(C)C[C@H](N)C(=O)O): 0.000333 ± 5.56e-05 s⁻¹
- kcat/Km (CC(C)C[C@H](N)C(=O)O): 2280 M⁻¹ s⁻¹
- Km (NCC(=O)O): 1.91 ± 0.03 µM
- Vmax (NCC(=O)O): 0.000444 µmol/min/mg
- kcat (NCC(=O)O): 0.000439 ± 5.56e-05 s⁻¹
- kcat/Km (NCC(=O)O): 222 M⁻¹ s⁻¹
- Km (CSCC[C@H](N)C(=O)O): 0.289 ± 0.027 µM
- Vmax (CSCC[C@H](N)C(=O)O): 0.000523 µmol/min/mg
- kcat (CSCC[C@H](N)C(=O)O): 0.000517 ± 1.11e-05 s⁻¹
- kcat/Km (CSCC[C@H](N)C(=O)O): 1780 M⁻¹ s⁻¹
- Km [4]: 2.83 ± 0.15 µM
- Vmax [4]: 0.000209 µmol/min/mg
- kcat [4]: 0.000206 ± 1.39e-05 s⁻¹
- kcat/Km [4]: 83.3 M⁻¹ s⁻¹

Second part, the compound after the results:

- Ki (LeuT [1]): 322 µM
Compound: NCC(=O)O [Glycine]

- Kd (LeuT [2]): 0.069 ± 0.008 µM
- Ki (LeuT [1]): 0.232 ± 0.021 µM
Compound: CSCC[C@H](N)C(=O)O [Methionine]

- Ki (LeuT [1]): 9.04 ± 0.55 µM
Compound: N[C@@H](Cc1ccc(O)cc1)C(=O)O [Tyrosine]
